Holding throughout (test): cross-linking + co-IP
Experiment [1] addresses Vps35p (S. cerevisiae (endogenous in strain AHY63)) (UniProt P34110).
Experiment [2] deals with A-ALP (S. cerevisiae).
The target in experiment [3] is A-ALP (S. cerevisiae). The source holds these as a separate data set.
For experiment [4], the target named is A-ALP (S. cerevisiae). The source holds these as a separate data set.

Read-outs that look alike come from different tables or passages of the source.

For A-ALP, in experiment [1], the percent of A-ALP immunoprecipitated by anti-Vps35p after cross-linking came to 5%.

B1: Vps35p (natural protein)
chain: MAYADSPENAIAVIKQRTALMNRCLSQHKLMESLQHTSIMLTELRNPNLSPKKYYELYVIIFDSLTNLSTYLIENHPQNHHLADLYELVQYTGNVVPRLYLMITVGTSYLTFNEAPKKEILKDMIEMCRGVQNPIRGLFLRYYLSQRTKELLPEDDPSFNSQFIMNNFIEMNKLWVRLQHQGPLRERETRTRERKELQILVGSQLVRLSQIIDDNFQMYKQDILPTILEQVIQCRDLVSQEYLLDVICQVFADEFHLKTLDTLLQTTLHLNPDVSINKIVLTLVDRLNDYVTRQLEDDPNATSTNAYLDMDVFGTFWDYLTVLNHERPDLSLQQFIPLVESVIVLSLKWYPNNFDNLNKLFELVLQKTKDYGQKNISLESEHLFLVLLSFQNSKLQLTSSTTAPPNSPVTSKKHFIFQLISQCQAYKNILALQSISLQKKVVNEIIDILMDREVEEMADNDSESKLHPPGHSAYLVIEDKLQVQRLLSICEPLIISRSGPPANVASSDTNVDEVFFNRHDEEESWILDPIQEKLAHLIHWIMNTTSRKQTMKNKIQFSLEAQLEILLLIKSSFIKGGINVKYTFPAIITNFWKLMRKCRMIQEYLLKKRPDNKTLLSHYSNLLKQMFKFVSRCINDIFNSCNNSCTDLILKLNLQCAILADQLQLNEISYDFFSQAFTIFEESLSDSKTQLQALIYIAQSLQKTRSLYKEAYYDSLIVRCTLHGSKLLKKQDQCRAVYLCSHLWWATEISNIGEEEGITDNFYRDGKRVLECLQRSLRVADSIMDNEQSCELMVEILNRCLYYFIHGDESETHISIKYINGLIELIKTNLKSLKLEDNSASMITNSISDLHITGENNVKASSNADDGSVITDKESNVAIGSDGTYIQLNTLNGSSTLIRGVVATASGSKLLHQLKYIPIHHFRRTCEYIESQREVDDRFKVIYV
Regarding B1, the percent of total Vps35p cross-linked in the experiment with A-ALP (S. cerevisiae) [2] was found to be 10%; in the experiment with A-ALP (S. cerevisiae) [3] it was 26%; in the experiment with A-ALP (S. cerevisiae) [4] it was 16%.

The record behind these values is paper PMC2192648.
